Laboratory results published in the RNAGym collection of RNA variant scans (doi:10.1093/molbev/msab373).

B1: Azoarcus group I ribozyme (parent)
chain: GUGCCUUGCGCCGGGAAACCACGCAAGGGAUGGUGUCAAAUUCGGCGAAACCUAAGCGCCCGCCCGGGCGUAUGGCAACGCCGAGCCAAGCUUCGGCGCCUGCGCCGAUGAAGGUGUAGAGACUAGACGGCACCCACCUAAGGCAAACGCUAUGGUGAAGGCAUAGUCCAGGGAGUGGCGAAAGUCACACAAACCGG

Variants of: B1
Assay: reverse-splicing fitness (ratio to wild type); higher = more active; in vitro selection; Mg2+ level not given
How it was run: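 An in vitro group I ribozyme library with randomized positions was T7-transcribed and gel-purified. In triplicate, 10 pmol RNA in EPPS pH 7.5 was reacted with 50 pmoles of a 30-nt RNA substrate for 1 h at 37 °C across several added MgCl2 levels (1–48 mM), then stopped with EDTA. Products were reverse transcribed from a substrate-complementary primer, PCR-amplified and sequenced (HiSeq 4000). Fitness is a variant's read proportion after selection over that before, normalised to wild type.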

In order of falling reverse-splicing fitness:
1. C82G A111G A120G A145G C150A C169G U176C  0.0272
2. C82G A111G A120G C150A C169G U176C  0.0263
3. C82G A111G A120G A145C C169G U176A  0.0262
4. C82G A111G A120G A145G C169G U176C  0.0248
5. C82G A111G A120G C150A C169G U176A  0.0239
6. C82G A111G A120G C150A C169A U176A  0.0233
7. C82G A111G A120G C169A U176C  0.0232
8. C82G A111G A120G A145G C150A C169A U176C  0.0231
9. C82G A111G A120G C169A U176A  0.022
10. C82G A111G A120G C150A C169A U176C  0.0216
11. C82G A111G A120G C150U U176C  0.0211
12. C82G A111G A120G C150A C169U U176A  0.021
13. C82G A111G A120G  0.0208
14. C82G A111G A120G A145C C169G U176C  0.0207
15. C82G A111G A120C C150U C169G U176C  0.0206
16. C82G A111G A120G A145G C150A C169A U176A  0.0204
17. C82G A111G A120G A145U C169G  0.0203
18. C82G A111G A120G A145G C169U U176C  0.019
19. C82G A111G A120G A145G C169U U176A  0.0188
20. C82G A111G A120C C150U C169G U176A  0.0185
21. C82G A111G A120G A145G C169G U176A  0.0184
22. C82G A111G A120G A145G C150A C169G U176A  0.0177
23. C82G A111G A120G A145G C150A C169U U176A  0.0177
24. C82G A111G A120G A145G C150A C169U U176C  0.0177
25. C82G A111G A120G C150A C169U U176C  0.0176
26. C82G A111G A120C C150U C169U U176C  0.017
27. C82G A111G A120C C169A U176A  0.017
28. C82G A111G A120C C150U C169U U176A  0.0166
29. C82G A111G A120C C169A U176C  0.0162
30. C82G A111G A120G A145U C150U  0.0155
31. C82G A111G A120C C150A U176G  0.0141
32. C82G A111G A120G A145U C150G C169A U176C  0.0133
33. C82G A111G A120G A145G C150G C169U U176C  0.0129
34. C82G A111G A120G A145G C150G C169U U176A  0.0127
35. C82G A111G A120C C150A C169U  0.0123
36. C82G A111G A120G C150A C169A  0.0123
37. C82G A111G A120G C150U U176A  0.012
38. C82G A111G A120G A145U C169U  0.012
39. C82G A111G A120G A145U C150G C169A U176A  0.0118
40. C82G A111G A120G A145U C169A  0.0118
41. C82G A111G A120C C150G C169G U176C  0.0117
42. C82G A111G A120G A145C C150U C169G  0.0111
43. C82G A111G A120C C150A C169A  0.0106
44. C82G A111G A120G C150A C169G  0.0105
45. C82G A111G A120G A145C C150G C169A U176A  0.0102
46. C82G A111G A120G C150U U176G  0.00986
47. C82G A111G A120G C150G C169A  0.00983
48. C82G A111G A120G A145C C150U C169A  0.00962
49. C82G A111G A120C C150A C169G  0.00943
50. C82G A111G A120G C150G C169U  0.0094
51. C82G A111G A120C C150G C169G U176A  0.00929
52. C82G A111G A120G A145C C150G C169G U176A  0.00914
53. C82G A111G A120G C150A C169U U176G  0.00912
54. C82G A111G A120G A145U C150A  0.00906
55. C82G A111G A120G A145C C150G C169A U176C  0.009
56. C82G A111G A120G A145C C150G C169G U176C  0.00887
57. C82G A111G A120G A145C C150U C169U  0.0088
58. C82G A111G A120G C150G C169G U176A  0.00837
59. C82G A111G A120C C150U C169U U176G  0.00815
60. C82G A111G A120G A145G C150G C169U U176G  0.00812
61. C82G A111G A120G A145G C150A C169U U176G  0.00809
62. C82G A111G A120G C150A C169U  0.00799
63. C82G A111G A120G C150G C169G  0.00788
64. C82G A111G A120G A145G C150A C169A U176G  0.00774
65. C82G A111G A120G A145U C150G  0.00774
66. C82G A111G A120G A145U C150G C169G U176A  0.00751
67. C82G A111G A120G C150A C169A U176G  0.00698
68. C82G A111G A120G A145U C150G C169G U176C  0.00676
69. C82G A111G A120C C150G C169G U176G  0.00647
70. C82G A111G A120G C150G C169G U176C  0.00628
71. C82G A111G A120G C150A C169G U176G  0.00621
72. C82G A111G A120G A145G C150A C169G U176G  0.00618
73. C82G A111G A120C C150U C169G U176G  0.00572
74. C82G A111G A120G A145C C150G C169A U176G  0.00562
75. C82G A111G A120G A145U C150G C169A U176G  0.00555
76. C82G A111G A120C C169A U176G  0.00532
77. C82G A111G A120G C150G C169G U176G  0.0053
78. C82G A111G A120G A145G C169U U176G  0.00529
79. C82G A111G A120G A145C C150G C169G U176G  0.00523
80. C82G A111G A120G A145C C169G U176G  0.00483
81. C82G A111G A120G A145U C150G C169G U176G  0.00457
82. C82G A111G A120G A145G C169G U176G  0.0045
83. C82G A111G A120G C169A U176G  0.00429
